Data on 10 molecules can be found in patent US20250346673A1 (DUALITY BIOLOGICS SUZHOU, published 2025).

Substitutions are numbered along the chain they refer to.

Test [1] has as its target T1, human BDCA2 (human, UniProt Q8WTT0 1-213).
T1 sequence (looked up): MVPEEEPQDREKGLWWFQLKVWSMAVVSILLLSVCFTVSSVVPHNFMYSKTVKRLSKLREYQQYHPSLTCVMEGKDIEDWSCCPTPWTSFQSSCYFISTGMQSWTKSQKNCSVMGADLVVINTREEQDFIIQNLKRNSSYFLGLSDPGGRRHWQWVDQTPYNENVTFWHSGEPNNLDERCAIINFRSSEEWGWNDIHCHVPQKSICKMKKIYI
Put plainly: cell-based or functional assay.

Test [2] addresses T1, human BDCA2. Put plainly: FACS on CHOK1-hBDCA2 cells; EC50 table beside the plot, unit from the x axis (nM) [continued) c.]. How it is done: The cells were recovered and resuspended to 2×10⁶/mL with FACS buffer (PBS+2% FBS). The cells were added to 3799 cell plates (Corning) at 100 μL/well, and the supernatant was discarded after centrifugation at 300 g. The antibodies were serially diluted with FACS buffer (Id.), the diluted antibodies were added to centrifuged cells and the cells were resuspended. The cells were incubated at 4° C. for 1 h. The incubated cells were centrifuged at 300 g for 5 min and washed twice with FACS buffer. 100 μL […] anti-Human IgG (H+L) Cross-Adsorbed Secondary Antibody-Alexa Fluor 488 (Sigma, A11013; 1:1000) secondary antibody was added, washed twice with FACS buffer after incubation at 4° C. for 1 h, resuspended with PBS, analyzed with FACS (BD FACS CantoTM II) instrument and curve fitted with GraphPad Prism6, and EC₅₀ values were calculated.

Test [3] concerns the target T1, human BDCA2. Put plainly: FACS on CHOK1-hBDCA2 cells; EC50 table under the plot, unit from the x axis (nM) [continued) d.]. The method, then: (§1) The cells were recovered and resuspended to 2×10⁶/mL with FACS buffer (PBS+2% FBS). The cells were added to 3799 cell plates (Corning) at 100 μL/well, and the supernatant was discarded after centrifugation at 300 g. The antibodies were serially diluted with FACS buffer (Id.), the diluted antibodies were added to centrifuged cells and the cells were resuspended. The cells were incubated at 4° C. for 1 h. The incubated cells were then centrifuged at […] for 5 min and washed twice with FACS buffer. 100 μL Donkey anti-Mouse IgG (H+L) Highly Cross-Adsorbed Secondary Antibody-Alexa Fluor 488 (Invitrogen, A21202; 1:1000) secondary antibody was added to the cells, which were washed twice with FACS buffer after incubation at 4° C. for 1 h, resuspended with PBS, analyzed with FACS (BD FACS CantoTM II) instrument. The curve was fitted with GraphPad Prism6, and EC₅₀ values were calculated.

In test [4] the target is T2, cynomolgus BDCA2 (cynomolgus monkey, UniProt A0A2K5UWP4 1-212).
T2 construct: whole, on cells; also called Cyno BDCA2; cynoBDCA2
T2 sequence: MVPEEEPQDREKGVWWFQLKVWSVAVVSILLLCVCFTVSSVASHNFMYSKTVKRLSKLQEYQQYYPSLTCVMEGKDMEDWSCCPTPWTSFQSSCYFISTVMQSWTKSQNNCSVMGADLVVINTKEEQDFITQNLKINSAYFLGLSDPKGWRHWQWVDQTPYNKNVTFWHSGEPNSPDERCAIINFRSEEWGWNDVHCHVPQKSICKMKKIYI
Put plainly: FACS on 293F-cynoBDCA2 cells; EC50 table under the plot, unit from the x axis (nM) [continued) d.]. How it is done: as §1

Test [5] deals with T2, cynomolgus BDCA2. Kind of test: FACS, 293F-cynoBDCA2 cells. The method, then:
(§2) The cells were recovered and resuspended to 2×10⁶/mL with FACS buffer (PBS+2% FBS). The resuspended cells were added to 3799 cell plates at 100 μL/well, and the supernatant was discarded after centrifugation at 300 g. […] The cells were incubated at 4° C. for 1 h. The incubated cells were centrifuged at […] for 5 min and washed twice with FACS buffer. 100 μL Goat anti-Human IgG (H+L) Cross-Adsorbed Secondary Antibody, Alexa Fluor 488 (Sigma, A11013; 1:1000) secondary antibody was added, washed twice with FACS buffer after incubation at 4° C. for 1 h. The cells were resuspended with PBS, then the fluorescence signal of antibodies bound to cell surface was analyzed with FACS (BD FACS CantoTM II) instrument and curves were fitted with GraphPad Prism6 to calculate EC₅₀ values for antibodies binding to BDCA2 antigen.
(In general: Flow cytometry measures light scatter and fluorescence of single cells or particles in a stream.)

Test [6] has as its target T1, human BDCA2. Put plainly: FACS, CHOK1-humanBDCA2 cells. How it is done:
as §2

Test [7] concerns the target T1, human BDCA2. Put plainly: cell-based or functional assay. The source holds these as a separate data set.
For test [8], the target named is T3, Recombinant Human BDCA2 (human, UniProt Q8WTT0 45-213, limits assumed).
T3 construct: also called hBDCA2 (SPR analyte); human BDCA2 antigen
T3 sequence (looked up): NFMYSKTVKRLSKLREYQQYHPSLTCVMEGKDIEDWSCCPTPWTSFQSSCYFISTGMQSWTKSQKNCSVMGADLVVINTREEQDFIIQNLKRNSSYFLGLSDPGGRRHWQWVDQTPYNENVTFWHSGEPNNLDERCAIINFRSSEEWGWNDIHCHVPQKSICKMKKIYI
Put plainly: SPR (BIAcore), antibody captured by anti-human IgG (Fc), hBDCA2 as analyte, 1:1 model. How it is done:
Then 1 M ethanolamine was injected at 10 μL/min flow rate for 420 seconds, and the excess active carboxyl groups on chip were blocked. The humanized antibodies were injected into a detection channel flow cell at flow rate of 10 μL/min for 60 s for capture after diluting to 1 μg/mL using running buffer. […] The sample hBDCA2 to be tested of each concentration gradient was injected into the detection channel at 30 μL/min flow rate, two samples at 0 concentration were used to remove background signal. The binding and dissociation times between antigen and antibody were 180 and 400 sec, respectively. An analysis of data was performed using Biacore Insight Evaluation Software (Version 2.0. 15.12933). A 1:1 binding model was selected for curve fitting and kinetic parameters were calculated after subtraction of signal of the reference channel (flow cell 1) and at 0 concentration.
For orientation: In SPR one partner is held on a chip, and binding of the other changes the refractive index at the surface.

B1: mab021c (antibody, V domains shown)
VH: DVQLQESGPGLVKPSQSLSLTCSVTGYSITSAYYWNWIRQFPGNKLECMGYITYDGNNYYSPSLKNRISITRDTSKNQFFLNLNSVTTEDTATYFCARGGDYDDGGFAFWGQGTLVTVSA
VL: DIQMTQSPASLSASVGETVTITCRASGNIHNYLAWYHQKQGKSPQLLVYNAKSLVDGVPSRFSGSGSGTQYSLRINSLQPEDFGSYYCQHFWIVPYTFGGGTKLEII
One may read the EC50 as the concentration that produces a half-maximal response. A higher EC50 goes with a need for much substance. Regarding B1, the “IC50, inhibition of IFNα secretion, CpG-A stimulated human PBMC” value (shortened to “IC50, inhibition of IFNα secretion”) in test [1] turned out to be 0.0127 nM. In addition, in test [2], it took 0.479 nM to reach a half-maximal effect (EC50).

B2: mAb021 (antibody, V domains shown)
VH: B1 VH
VL: B1 VL
notes: Mouse hybridoma antibody
For B2, the “IC50 for inhibiting cytokine IFNα release, CpG-A stimulated human PBMC” value in test [1] came to 0.00405 nM. In addition, the results for the concentration for a half-maximal effect (EC50) in test [3] and in test [4] were 0.328 nM and 0.566 nM, respectively.

B3: mab030c (antibody, V domains shown)
VH: B1 VH with T53S, N57S, S61N, N82S, A97V, F109Y
VL: B1 VL with H37Q, S53T, V55A, G68E, R74K, S85N, Y87F, V94I, I107K
Take B3: in test [1], the “IC50, inhibition of IFNα secretion” value worked out at 0.0164 nM. This molecule gave a concentration for a half-maximal effect (EC50) in test [2] of 0.583 nM.

B4: mab027c (antibody, V domains shown)
VH: B1 VH with I38V, K45Q, N57S, Y59N, S61N, N82K, F95Y, A97V, F109Y
VL: B1 VL with H37Q, S53T, Q70E, R74K, S85I, Y87F, V94I, I107R
On to B4, for which the “IC50, inhibition of IFNα secretion” value in test [1] is 0.00898 nM. Besides, a half-maximal response in test [2] (EC50) required 0.443 nM.

B5: mab020c (antibody, V domains shown)
VH: DVQLQESGPGLVKPSQSLSLTCSVTGYSIASGYYWNWIRQFPGNKLEWMGYISFDGTYNYNPSLKDRFSITRDTSKNQFFLKLNSVTTEDTATYYCARGVDYPNAIDWWGQGTSVTVSS
VL: DIVLTQSPASLAVSLGQRATISCRASESVSMHVTHLIHWYQQKPGQPPKLLIYVASNLESGVPARFSGSGSETDFTLNIHPVEEEDAATYFCQQSFEDPWTFGGGTKLEIK
Consider B5, for which the “IC50, inhibition of IFNα secretion” value in test [1] turned out to be 0.0185 nM. Moreover, the EC50 in test [2] amounted to 0.831 nM.

B6: mab024c (antibody, V domains shown)
VH: EVQLVESGGDLVKPGGSLKLSCAASGFTFSSFGMSWVRQTPDKRLDWVATISSGDSYTYYPDSVKGRFSISRDNAKNTLYLQMSSLKSEDTAVYYCARQIYYDYAYYFDYWGQGTTLTVSS
VL: B5 VL with M31F, H32R, V33S, T34S, I37M, Q41R, V54A, T89A, F96I, W100P
B6: the “IC50, inhibition of IFNα secretion” value in test [1] came to 0.0168 nM. For the same molecule, the EC50 in test [2] was 0.549 nM.

B7: mab022c (antibody, V domains shown)
VH: B5 VH with A30T, N104K, I106M
VL: B5 VL
Consider B7, for which the “IC50, inhibition of IFNα secretion” value in test [1] amounted to 0.0324 nM. In addition, the concentration giving a half-maximal response (EC50) in test [2] is 0.939 nM.

B8: mab033c (antibody, V domains shown)
VH: B6 VH with L4M, G16D, S30R, F32Y, D46E, S69T, V93L, Y110F
VL: B5 VL with M31F, H32R, V33T, T34S, I37M, V54G, T89A, F96I, W100P
In general, Kd refers to the concentration at which binding is half-saturated. In general, koff refers to the first-order rate constant of dissociation. The term kon denotes the second-order rate constant of association. Take B8: the EC50 in test [5] stood at 0.56 nM. In addition, the EC50 in test [6] was determined as 0.26 nM. Further, the “IC50, inhibition of IFNα secretion” value in test [1] amounted to 0.00833 nM. Moreover, the EC50 in test [2] was found to be 0.277 nM. In test [7], the “EC50 (nM), inhibition of CpG-A stimulated IFNα release from human PBMC” value stood at 0.02 nM. Also, in test [8], the Kd worked out at 0.11 nM, the koff is 7.67e-05 s⁻¹ and the kon turned out to be 698000 M⁻¹ s⁻¹.

B9: mab019c (antibody, V domains shown)
VH: EVKLVESGGDLVQPGGSLKLSCAASGFTFSDYYMYWVRQTPEKRLEWVAYISYSGDSTYYPDTVKGRFTISRDNAKNTLFLQMSRLKSEDTAMYYCARHSPSFPYYFDYWGQGTALTVSS
VL: EIVLTQSPAITAASLGQKVTITCSASSSVSYMHWYQQKSGTSPKPWIYEISKLASGVPARFSGSGSGTSYSLTISSMEAEDAAIYYCQLWNYPLITFGGGTNLEIK
As to B9, the “IC50, inhibition of IFNα secretion” value in test [1] was found to be 0.0149 nM. Moreover, the half-maximal effective concentration (EC50) in test [2] came to 5.17 nM.

B10: mAb019 (antibody, V domains shown)
VH: B9 VH
VL: B9 VL
notes: Mouse hybridoma antibody
Consider B10, for which the “IC50 for inhibiting cytokine IFNα release, CpG-A stimulated human PBMC” value in test [1] turned out to be 0.00332 nM. In addition, the 50% effective concentration (EC50) in test [3] came to 0.271 nM; in test [4], 0.485 nM.
